The source of these data is patent US20260185108A1 (Johns Hopkins, published 2026).

Test [1] deals with T1, CD63 (endogenous, on WT 293F cells) (UniProt P08962 2-238, limits assumed).
T1 construct: whole, on cells; Compared with the 293F/CD63-/- knockout line as the negative control; also called WT CD63
T1 sequence (looked up): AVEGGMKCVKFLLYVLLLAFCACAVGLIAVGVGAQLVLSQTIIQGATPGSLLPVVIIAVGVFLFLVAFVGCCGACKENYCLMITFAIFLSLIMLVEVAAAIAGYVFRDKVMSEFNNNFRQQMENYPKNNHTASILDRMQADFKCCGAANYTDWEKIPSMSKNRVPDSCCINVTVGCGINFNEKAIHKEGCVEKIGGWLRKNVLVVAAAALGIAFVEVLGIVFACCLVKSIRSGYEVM
Description: flow cytometry of CP05-Cy5 on WT 293F cells against 293F/CD63-/- cells. The protocol: (§1) For measurement of surface CD63 abundance and Cy5-CP05 peptide binding, cells were washed in HBSS, released from tissue culture plates using trypsin/EDTA solution, and resuspended at a concentration of 1×10^7 cells per ml in HBSS. Cell suspensions were maintained on ice, diluted to a concentration of 1×10^6 cells per ml, incubated with either (i) fluorescently labeled anti-CD63 antibody (catalog no.: 353006; BioLegend) or (ii) CY5-labeled CP05 peptide (NH2-[…](K/Cy5)-amide; Vivitide; molecular weight=[…]). Following the binding reaction, cells were washed five times in PBS and then examined by flow cytometry on a Beckman CytoFlex flow cytometer set at the appropriate excitation and emission wavelengths. The relative brightness was determined for thousands of individual cells in each cell line using Beckman CytExpert software (version 2.3.1.22) to calculate average brightness and CV as well as to generate scatter plots and histograms.
(§2) To determine whether these mutations led to a drop in the cell surface expression of CD63, cell lines were interrogated: the 293F/CD63^{-/-} cell line, the parental 293F cell line, and the F/YA24 cell line by flow cytometry, using a commercially available fluorescently tagged monoclonal anti-CD63 antibody. […]
In general terms: A flow cytometer gives signals particle by particle.

Test [2] addresses T2, CD63/Y235A (on F/YA24 cells) (UniProt P08962 2-238, limits assumed).
T2 construct: whole, on cells; F/YA24 cells also carry the endogenous CD63 of 293F cells; also called mutant form of CD63
T2 sequence (looked up): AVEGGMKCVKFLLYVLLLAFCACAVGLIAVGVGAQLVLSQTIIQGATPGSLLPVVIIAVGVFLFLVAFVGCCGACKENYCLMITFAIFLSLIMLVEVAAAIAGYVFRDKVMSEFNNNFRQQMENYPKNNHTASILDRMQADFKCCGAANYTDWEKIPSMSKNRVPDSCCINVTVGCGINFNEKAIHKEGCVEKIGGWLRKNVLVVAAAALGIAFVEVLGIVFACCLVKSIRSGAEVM
The test is described as follows: flow cytometry of CP05-Cy5 on F/YA24 cells against 293F and 293F/CD63-/- cells. The protocol:
as §1, §2

B1: Cy5-labeled CP05 peptide (NH2-CRHSQMTVTSRL(K/Cy5)-amide) (peptide)
peptide: H-CRHSQMTVTSRLK(Cy5)-NH2
notes: Synthetic peptide (Vivitide); the labeled peptide used in the assay has one more Lys(Cy5) and a C-terminal amide; also called CP05-Cy5; Cy5-CP05 peptide
Turning to B1, the binding result in test [1] is “no binding (tested: 0.34 µM and 3.4 µM CP05-Cy5)”; in test [2], “no binding (tested: 0.34 µM and 3.4 µM CP05-Cy5)”.
